Results reported in publication PMC12552936, “Protein inhibitor of retinal membrane guanylyl cyclase suppresses cGMP synthesis in photoreceptors” (The Journal of Biological Chemistry, 2025).
Positions count from the first letter of the chain named. Names and notes keep the numbering of the source. Values belong to the molecule of their own block, whether it stands above or below them.

Tests used:
[1] = target: mOrange-tagged RetGC1 (retinal membrane guanylyl cyclase 1) (human) (UniProt Q02846)
[2] = target: T1, mOrange-tagged RetGC1 (retinal membrane guanylyl cyclase 1) (human, UniProt Q02846 52-1103); experiment: cell-based or functional assay
T1 sequence (looked up): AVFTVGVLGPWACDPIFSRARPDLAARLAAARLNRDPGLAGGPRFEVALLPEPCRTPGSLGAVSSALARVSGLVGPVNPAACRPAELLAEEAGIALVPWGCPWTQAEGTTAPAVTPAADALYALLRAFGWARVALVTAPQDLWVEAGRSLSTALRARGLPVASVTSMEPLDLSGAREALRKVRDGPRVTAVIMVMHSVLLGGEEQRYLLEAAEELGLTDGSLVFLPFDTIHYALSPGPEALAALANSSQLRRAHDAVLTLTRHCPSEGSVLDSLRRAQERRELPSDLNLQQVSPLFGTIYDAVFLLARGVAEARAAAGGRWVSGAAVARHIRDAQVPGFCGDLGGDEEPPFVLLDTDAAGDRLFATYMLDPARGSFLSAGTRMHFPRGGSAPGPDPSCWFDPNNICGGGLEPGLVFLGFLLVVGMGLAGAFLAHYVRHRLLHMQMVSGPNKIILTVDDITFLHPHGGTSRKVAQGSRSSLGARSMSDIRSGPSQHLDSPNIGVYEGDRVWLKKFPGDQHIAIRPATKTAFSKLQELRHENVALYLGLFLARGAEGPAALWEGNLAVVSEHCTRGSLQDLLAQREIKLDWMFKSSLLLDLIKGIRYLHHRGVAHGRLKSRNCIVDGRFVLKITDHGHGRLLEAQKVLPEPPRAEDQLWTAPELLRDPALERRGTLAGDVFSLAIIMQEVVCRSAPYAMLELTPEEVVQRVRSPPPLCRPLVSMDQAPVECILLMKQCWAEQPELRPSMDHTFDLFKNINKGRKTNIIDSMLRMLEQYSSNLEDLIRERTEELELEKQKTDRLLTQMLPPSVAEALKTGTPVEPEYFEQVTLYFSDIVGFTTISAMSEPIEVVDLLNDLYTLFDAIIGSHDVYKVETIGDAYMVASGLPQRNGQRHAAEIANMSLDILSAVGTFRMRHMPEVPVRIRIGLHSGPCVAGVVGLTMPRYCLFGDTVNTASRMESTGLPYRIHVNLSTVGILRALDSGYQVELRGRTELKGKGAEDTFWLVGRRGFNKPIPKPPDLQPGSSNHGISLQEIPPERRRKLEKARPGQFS

[3] = target: native RetGC of the mouse retina (endogenous RetGC in retinal homogenates and isolated rod outer segments)

B1: M26R GCAP1 (natural protein)
chain: MGNIMDGKSVEELSSTECHQWYKKFRTECPSGQLTLYEFRQFFGLKNLSPWASQYVEQMFETFDFNKDGYIDFMEYVAALSLVLKGKVEQKLRWYFKLYDVDGNGCIDRDELLTIIRAIRAINPCSDSTMTAEEFTDTVFSKIDVNGDGELSLEEFMEGVQKDQMLLDTLTRSLDLTRIVRRLQNGEQDEEGASGRETEAAEADG
modifications: N-terminal myristoyl
inhibition of the activity of recombinant RetGC1 in HEK293 membranes reconstituted with 1 μM GCAP1 (blocked pair: RetGC1:GCAP1), 2 mM EGTA, 10 mM MgCl2; IC50 [1]: 640 nM

B2: GCAP1-GFP (wildtype GCAP1 tagged with GFP) (natural protein, bovine, UniProt P46065 1-205, looked up)
chain: B1 chain with R26M
activation of recombinant human RetGC1 by Mg2+GCAP1 in the absence of Ca2+, dose dependence (Fig. 3A inset); EC50 [2]: ~1500 nM

Next, values leading:

inhibition of the activity of recombinant RetGC1 in HEK293 membranes reconstituted with 1 μM GCAP1 (blocked pair: RetGC1:GCAP1), 2 mM EGTA, 10 mM MgCl2; IC50 [1]: 300 nM
Molecule: M26R/L176F GCAP1 (from UniProt P46065 1-205) (natural protein)

inhibition by PIGCY of RetGC1 preactivated by 1 μM bovine recombinant GCAP1 (blocked pair: RetGC1:bovine GCAP1), 2 mM EGTA, 10 mM MgCl2; IC50 [2]: 51 nM
inhibition by PIGCY of RetGC1 preactivated by 1 μM human recombinant GCAP1 (blocked pair: RetGC1:human GCAP1), 2 mM EGTA, 10 mM MgCl2; IC50 [2]: 75 nM
inhibition by PIGCY of RetGC1 preactivated by 1 μM mouse recombinant GCAP1 (blocked pair: RetGC1:mouse GCAP1), 2 mM EGTA, 10 mM MgCl2; IC50 [2]: 91 nM
inhibition of the activity of recombinant RetGC1 in HEK293 membranes reconstituted with 1 μM GCAP1 (blocked pair: RetGC1:GCAP1), 2 mM EGTA, 10 mM MgCl2; IC50 [2]: 52 nM
reduction of Vmax of recombinant human RetGC1 in HEK293 membranes reconstituted with 2 μM wildtype GCAP1 by 0.35 μM PIGCY (blocked pair: RetGC1:GCAP1) [2]: > 3 fold
total RetGC activity in the rod outer segment fraction isolated from wildtype mouse retinas with 3 μM PIGCY (32 without PIGCY) (nmol cGMP/min/mg rhodopsin) [3]: 11
B3: PIGCY-GFP (protein inhibitor of retinal guanylyl cyclase, M26R/G86R/L176F GCAP1, tagged with GFP at the C-terminus) (designed binder)
chain: B1 chain with G86R, L176F
